Measured values reported in publication doi:10.1101/464131, “Increased association between Epstein-Barr virus EBNA2 from type 2 strains and the transcriptional repressor BS69 restricts B cell growth” (bioRxiv, 2018).

B7: BS69 CC-MYND domain (amino acids 480-602) (domain or fragment, human, UniProt Q15326-1 480-602, looked up)
chain: DRMKSDHKRETERVVREALEKLRSEMEEEKRQAVNKAVANMQGEMDRKCKQVKEKCKEEFVEEIKKLATQHKQLISQTKKKQWCYNCEEEAMYHCCWNTSYCSIKCQQEHWHAEHKRTCRRKR
notes: BS69 (ZMYND11), human, C-terminal region with the coiled-coil and MYND domains, amino acids 480-602; canonical isoform 1 of 602 amino acids; Dimer by SEC-MALS; Amplified from pCI-BS69 and cloned into pET49b+; also called ZMYND11; source: E. coli Rosetta 2 (DE3) pLysS, purified (cobalt resin, 3C protease cleavage, Superdex 75); not shown: GST, N-terminal, cleaved; His6, N-terminal, cleaved

Experiments:
[1] = biological target: T1, BS69 CC-MYND domain (amino acids 480-602) (human, UniProt Q15326-1 480-602); experiment: ITC
T1 chain: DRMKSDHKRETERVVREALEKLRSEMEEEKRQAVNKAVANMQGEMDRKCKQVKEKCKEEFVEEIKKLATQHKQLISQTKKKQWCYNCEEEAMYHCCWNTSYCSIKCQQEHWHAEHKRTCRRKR

[2] = biological target: B7; experiment: ITC; EBNA2 polypeptide titrated into BS69CC-MYND (0.1 mM) in the cell, 29 x 1.3 μl injections, 25°C, 20 mM Tris-HCl, 100 mM NaCl, 1 mM TCEP, pH 7.5; two sets of sites (two event) model; conditions: both partners purified
[3] = biological target: B7; experiment: ITC; EBNA2 polypeptide titrated into BS69CC-MYND (0.1 mM) in the cell, 19 x 2.0 μl injections, 25°C, 20 mM Tris-HCl, 100 mM NaCl, 1 mM TCEP, pH 7.5; one set of sites model; n calculated for monomeric proteins; conditions: both partners purified
[4] = biological target: B7; experiment: ITC; EBNA2 peptide (1 mM) titrated into BS69CC-MYND (0.1 mM) in the cell, 13 injections, 25°C, 20 mM Tris-HCl, 100 mM NaCl, 1 mM TCEP, pH 7.5; one-site model with n fixed to 1; conditions: both partners purified
[5] = biological target: the molecule itself; experiment: SEC-MALS; individual proteins, 5 mg/ml, Shodex KW403-4F column, 25°C, 20 mM Tris-HCl, 100 mM NaCl, 1 mM TCEP, pH 7.5

B1: type 1 EBNA2 polypeptide T1 EBNA2_(381-455) (domain or fragment)
chain: SMPELSPVLGLHQGQGAGDSPTPGPSNAAPVCRNSHTATPNVSPIHEPESHNSPEAPILFPDDWYPPSIDPADLD
Kd [1]: 730 nM

B2: type 2 EBNA2 polypeptide T2 EBNA2_(348-422) (domain or fragment)
chain: SMPQLSPVVSLHQGQGPENSPTPGPSTAGPVCRVTPSATPDISPIHEPESSDSEEPPFLFPSDWYPPTLEPAELD
notes: pET47b+ construct; Monomer by SEC-MALS; also called type 2 EBNA2_(348-422); source: E. coli Rosetta 2 (DE3) pLysS, purified (cobalt resin, 3C protease cleavage, Superdex 75); not shown: His6, N-terminal, cleaved
dH (second binding event) [2]: -1.59 kcal/mol
stoichiometry N [3]: 0.15 molar ratio EBNA2 : BS69CC-MYND monomer
Kd [1]: 1010 nM

B3: EBNA2_(348-422) SD + m3 mt (domain or fragment)
chain: SMPQLSPVVSLHQGQGPENSPTPGPSTAGPVCRVTPSATPDISPIHEPESSDSEEPPFLFPDDWYPATAEAAELD
notes: EBNA2 of type 2 EBV (AG876), amino acids 348-422 with S409D and motif 3 (PTLEP 414-418) mutated to ATAEA; also called T2 EBNA2_(348-422) SD + motif 3 mt; double mutant type 2 EBNA2 polypeptide; source: E. coli Rosetta 2 (DE3) pLysS, purified (cobalt resin, 3C protease cleavage, Superdex 75); not shown: His6, N-terminal, cleaved
dH (second binding event) [2]: -9.62 kcal/mol
fold reduction of the affinity of the second binding event (KD2) against m11 [2]: ~2 fold

B4: T2 EBNA2_(348-422) SD mutant (domain or fragment)
chain: SMPQLSPVVSLHQGQGPENSPTPGPSTAGPVCRVTPSATPDISPIHEPESSDSEEPPFLFPDDWYPPTLEPAELD
notes: EBNA2 of type 2 EBV (AG876), amino acids 348-422 with serine 409 changed to aspartate (the position that is 442 in type 1 EBNA2); text and methods print 409; source: E. coli Rosetta 2 (DE3) pLysS, purified (cobalt resin, 3C protease cleavage, Superdex 75); not shown: His6, N-terminal, cleaved
dH (second binding event) [2]: -7.65 kcal/mol

B5: T2 EBNA2_(348-422) motif 3 mt (domain or fragment)
chain: SMPQLSPVVSLHQGQGPENSPTPGPSTAGPVCRVTPSATPDISPIHEPESSDSEEPPFLFPSDWYPATAEAAELD
notes: EBNA2 of type 2 EBV (AG876), amino acids 348-422, motif 3 (PTLEP 414-418) mutated to ATAEA; source: E. coli Rosetta 2 (DE3) pLysS, purified (cobalt resin, 3C protease cleavage, Superdex 75); not shown: His6, N-terminal, cleaved
stoichiometry N [3]: 0.3 molar ratio EBNA2 : BS69CC-MYND monomer

B6: type 2 EBNA2 motif 2 peptide (402-412) (peptide)
peptide: EPPFLFPSDWY
notes: source: synthetic peptide (Peptide Synthetics)
Kd [4]: 176000 nM

B7
stoichiometry N [5]: 2

B8: type 2 EBNA2 polypeptide T2 EBNA2_(348-412) (domain or fragment)
chain: SMPQLSPVVSLHQGQGPENSPTPGPSTAGPVCRVTPSATPDISPIHEPESSDSEEPPFLFPSDWY
notes: pET47b+ construct; also called type 2 EBNA2_(348-412); source: E. coli Rosetta 2 (DE3) pLysS, purified (cobalt resin, 3C protease cleavage, Superdex 75); not shown: His6, N-terminal, cleaved
Kd [3]: 1210 nM
stoichiometry N [3]: 0.33 molar ratio EBNA2 : BS69CC-MYND monomer

B9: type 2 EBNA2 motif 3 peptide T2 EBNA2_(412-422) (peptide)
peptide: YPPTLEPAELD
notes: as for B6
Kd [4]: 219000 nM
